How the values were obtained:
Test in all cases: holdup assay
Parameters in all cases: key: below the threshold = too weak to quantify, mostly under pKd 3.1 to 4
AHNAK1, Q09666 = target: AHNAK1, Q09666
APBA1_1, Q02410 = target: T1, APBA1_1, Q02410
T1 sequence (Q02410 651-752, limits assumed, looked up): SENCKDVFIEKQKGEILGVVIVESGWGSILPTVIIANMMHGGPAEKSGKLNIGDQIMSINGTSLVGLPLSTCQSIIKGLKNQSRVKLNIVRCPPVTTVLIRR

DLG4_3, P78352 = target: DLG4_3, P78352
GRID2IP_1, A4D2P6 = target: GRID2IP_1, A4D2P6
GRID2IP_2, A4D2P6 = target: GRID2IP_2, A4D2P6
GRIP1_5, Q9Y3R0 = target: T2, GRIP1_5, Q9Y3R0
T2 sequence (Q9Y3R0 568-668, limits assumed, looked up): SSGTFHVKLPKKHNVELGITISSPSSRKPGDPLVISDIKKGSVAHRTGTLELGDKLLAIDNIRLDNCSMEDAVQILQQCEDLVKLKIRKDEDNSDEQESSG

GRIP2_5, Q9C0E4 = target: GRIP2_5, Q9C0E4
HTRA3, P83110 = target: T3, HTRA3, P83110
T3 sequence (P83110 354-453, limits assumed, looked up): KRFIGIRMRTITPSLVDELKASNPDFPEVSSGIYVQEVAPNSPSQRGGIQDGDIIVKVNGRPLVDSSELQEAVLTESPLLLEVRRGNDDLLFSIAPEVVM

HTRA4, P83105 = target: T4, HTRA4, P83105
T4 sequence (P83105 378-476, limits assumed, looked up): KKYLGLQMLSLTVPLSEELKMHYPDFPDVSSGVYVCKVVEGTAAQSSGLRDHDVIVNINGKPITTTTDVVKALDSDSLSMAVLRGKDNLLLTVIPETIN

IL16_4, Q14005 = target: IL16_4, Q14005
Inadl_10, Q8NI35 = target: Inadl_10, Q8NI35
LDB3, O75112 = target: LDB3, O75112
LNX1_1, Q8TBB1 = target: LNX1_1, Q8TBB1
LNX1_2, Q8TBB1 = target: LNX1_2, Q8TBB1
LNX1_3, Q8TBB1 = target: LNX1_3, Q8TBB1
MAGI2_3, Q86UL8 = target: MAGI2_3, Q86UL8
MAGI3_2, Q5TCQ9 = target: MAGI3_2, Q5TCQ9
MAST2, Q6P0Q8 = target: MAST2, Q6P0Q8
MPP6, Q9NZW5 = target: T5, MPP6, Q9NZW5
T5 sequence (Q9NZW5 125-219, limits assumed, looked up): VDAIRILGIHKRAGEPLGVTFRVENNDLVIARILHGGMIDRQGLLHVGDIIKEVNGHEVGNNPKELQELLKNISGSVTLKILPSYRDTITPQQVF

NHERF3_1, Q5T2W1 = target: T6, NHERF3_1, Q5T2W1
T6 sequence (Q5T2W1 4-100, limits assumed, looked up): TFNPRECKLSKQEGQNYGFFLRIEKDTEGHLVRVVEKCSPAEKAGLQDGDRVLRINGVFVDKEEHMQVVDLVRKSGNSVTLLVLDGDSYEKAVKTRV

NHERF3_3, Q5T2W1 = target: T7, NHERF3_3, Q5T2W1
T7 sequence (Q5T2W1 238-333, limits assumed, looked up): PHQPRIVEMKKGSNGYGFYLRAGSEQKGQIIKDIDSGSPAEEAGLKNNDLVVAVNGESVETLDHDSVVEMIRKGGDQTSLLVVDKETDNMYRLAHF

NHERF3_4, Q5T2W1 = target: T8, NHERF3_4, Q5T2W1
T8 sequence (Q5T2W1 373-468, limits assumed, looked up): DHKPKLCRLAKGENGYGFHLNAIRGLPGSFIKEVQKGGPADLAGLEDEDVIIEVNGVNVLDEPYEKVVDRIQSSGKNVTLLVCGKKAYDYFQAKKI

NHERF4_4, Q86UT5 = target: NHERF4_4, Q86UT5
RHPN1, Q8TCX5 = target: T9, RHPN1, Q8TCX5
T9 sequence (Q8TCX5 508-602, limits assumed, looked up): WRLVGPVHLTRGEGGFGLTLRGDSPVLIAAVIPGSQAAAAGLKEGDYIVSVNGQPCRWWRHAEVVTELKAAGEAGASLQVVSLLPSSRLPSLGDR

SHANK1, Q9Y566 = target: T10, SHANK1, Q9Y566
T10 sequence (Q9Y566 658-767, limits assumed, looked up): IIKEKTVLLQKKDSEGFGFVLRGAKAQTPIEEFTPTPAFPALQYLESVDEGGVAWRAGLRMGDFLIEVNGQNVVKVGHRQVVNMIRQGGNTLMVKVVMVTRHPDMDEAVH

SNTG1, Q9NSN8 = target: T11, SNTG1, Q9NSN8
T11 sequence (Q9NSN8 52-150, limits assumed, looked up): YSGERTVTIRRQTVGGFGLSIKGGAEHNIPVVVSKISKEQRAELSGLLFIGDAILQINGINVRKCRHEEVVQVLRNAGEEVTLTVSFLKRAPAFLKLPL

SNX27, Q96L92 = target: SNX27, Q96L92
[1] = plain residues with an end cap or a label only (N-terminal biotin on a linker: ahx)
[2] = plain residues with an end cap or a label only (N-terminal biotin on a linker: ttds)

Measured: pKd

Sequence of AHNAK1, Q09666 (Q09666 4-100): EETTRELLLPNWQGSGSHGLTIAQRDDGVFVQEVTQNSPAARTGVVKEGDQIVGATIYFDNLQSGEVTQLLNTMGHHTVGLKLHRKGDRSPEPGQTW
Sequence of LNX1_2, Q8TBB1 (Q8TBB1 371-470): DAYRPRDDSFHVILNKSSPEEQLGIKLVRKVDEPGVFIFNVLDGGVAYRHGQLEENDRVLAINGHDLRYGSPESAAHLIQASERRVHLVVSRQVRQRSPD
Sequence of IL16_4, Q14005 (Q14005 1229-1329): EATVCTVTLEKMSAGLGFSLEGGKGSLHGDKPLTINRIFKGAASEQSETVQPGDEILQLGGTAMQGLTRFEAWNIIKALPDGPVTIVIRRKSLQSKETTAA
Sequence of GRID2IP_2, A4D2P6 (A4D2P6 272-370): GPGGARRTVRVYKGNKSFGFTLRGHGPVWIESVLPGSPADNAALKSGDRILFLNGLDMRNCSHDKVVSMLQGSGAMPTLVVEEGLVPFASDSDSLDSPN
Sequence of GRIP2_5, Q9C0E4 (Q9C0E4 544-642): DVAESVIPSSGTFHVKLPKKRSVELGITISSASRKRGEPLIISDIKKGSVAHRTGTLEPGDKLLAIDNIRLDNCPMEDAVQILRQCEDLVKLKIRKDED
Sequence of MAGI2_3, Q86UL8 (Q86UL8 600-682): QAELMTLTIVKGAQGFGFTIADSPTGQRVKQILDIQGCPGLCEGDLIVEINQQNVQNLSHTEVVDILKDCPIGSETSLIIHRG
Sequence of NHERF4_4, Q86UT5 (Q86UT5 464-550): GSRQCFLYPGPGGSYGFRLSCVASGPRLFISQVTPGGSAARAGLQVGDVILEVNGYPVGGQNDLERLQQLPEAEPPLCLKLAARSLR
Sequence of LNX1_3, Q8TBB1 (Q8TBB1 500-596): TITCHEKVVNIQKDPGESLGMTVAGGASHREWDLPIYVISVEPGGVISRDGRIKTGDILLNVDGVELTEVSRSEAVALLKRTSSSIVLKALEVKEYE
Sequence of MAST2, Q6P0Q8 (Q6P0Q8 1099-1202): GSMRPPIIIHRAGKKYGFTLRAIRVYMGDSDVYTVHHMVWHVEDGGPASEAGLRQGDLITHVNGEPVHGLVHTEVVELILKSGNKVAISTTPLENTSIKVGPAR
Sequence of DLG4_3, P78352 (P78352 306-403): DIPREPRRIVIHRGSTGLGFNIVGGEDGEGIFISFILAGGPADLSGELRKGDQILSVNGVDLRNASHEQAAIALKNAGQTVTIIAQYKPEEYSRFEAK
Sequence of GRID2IP_1, A4D2P6 (A4D2P6 1-87): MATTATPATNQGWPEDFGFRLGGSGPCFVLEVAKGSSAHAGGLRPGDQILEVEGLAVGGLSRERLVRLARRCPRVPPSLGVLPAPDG
Sequence of Inadl_10, Q8NI35 (Q8NI35 1673-1763): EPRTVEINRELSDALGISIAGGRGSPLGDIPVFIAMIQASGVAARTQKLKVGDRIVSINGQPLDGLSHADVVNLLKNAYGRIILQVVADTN
Sequence of LNX1_1, Q8TBB1 (Q8TBB1 261-371): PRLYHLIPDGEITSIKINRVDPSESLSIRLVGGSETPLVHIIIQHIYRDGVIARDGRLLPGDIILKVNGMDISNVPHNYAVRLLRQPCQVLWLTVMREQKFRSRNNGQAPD
Sequence of MAGI3_2, Q5TCQ9 (Q5TCQ9 398-503): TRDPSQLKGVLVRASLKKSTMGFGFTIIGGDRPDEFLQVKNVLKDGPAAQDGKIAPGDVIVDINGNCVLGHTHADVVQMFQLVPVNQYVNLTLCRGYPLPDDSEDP
Sequence of LDB3, O75112 (O75112 1-94): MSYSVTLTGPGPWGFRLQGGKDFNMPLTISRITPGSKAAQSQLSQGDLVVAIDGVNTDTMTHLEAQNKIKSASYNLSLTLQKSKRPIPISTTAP

AKPQPVDSWV [ARVCF, O00192]
3.86: MAST2, Q6P0Q8; [1]
below the threshold: AHNAK1, Q09666; [1] | APBA1_1, Q02410; [1] | DLG4_3, P78352; [1] | GRID2IP_1, A4D2P6; [1] | GRID2IP_2, A4D2P6; [1] | GRIP1_5, Q9Y3R0; [1] | GRIP2_5, Q9C0E4; [1] | HTRA4, P83105; [1] | IL16_4, Q14005; [1] | Inadl_10, Q8NI35; [1] | LDB3, O75112; [1] | LNX1_1, Q8TBB1; [1] | LNX1_2, Q8TBB1; [1] | LNX1_3, Q8TBB1; [1] | MAGI2_3, Q86UL8; [1] | MPP6, Q9NZW5; [1] | NHERF3_1, Q5T2W1; [1] | NHERF3_3, Q5T2W1; [1] | NHERF3_4, Q5T2W1; [1] | NHERF4_4, Q86UT5; [1] | SHANK1, Q9Y566; [1]
4.64: SNTG1, Q9NSN8; [1]
5.15: SNX27, Q96L92; [1]
5.51: HTRA3, P83110; [1]
3.8: RHPN1, Q8TCX5; [1]
3.68: MAGI3_2, Q5TCQ9; [1]

NPDALPETLV [ARHGAP6, O43182]
3.83: LNX1_1, Q8TBB1; [2]
3.89: MAGI2_3, Q86UL8; [2]
4.65: MAST2, Q6P0Q8; [2]
3.46: DLG4_3, P78352; [2]
4.7: SNX27, Q96L92; [2]
4.61: RHPN1, Q8TCX5; [2]
4.55: NHERF3_1, Q5T2W1; [2]
3.8: GRID2IP_2, A4D2P6; [2]
below the threshold: AHNAK1, Q09666; [2] | APBA1_1, Q02410; [2] | GRID2IP_1, A4D2P6; [2] | GRIP1_5, Q9Y3R0; [2] | GRIP2_5, Q9C0E4; [2] | HTRA3, P83110; [2] | HTRA4, P83105; [2] | IL16_4, Q14005; [2] | Inadl_10, Q8NI35; [2] | LDB3, O75112; [2] | LNX1_3, Q8TBB1; [2] | MPP6, Q9NZW5; [2] | NHERF3_3, Q5T2W1; [2] | NHERF3_4, Q5T2W1; [2] | NHERF4_4, Q86UT5; [2] | SHANK1, Q9Y566; [2]
4.6: MAGI3_2, Q5TCQ9; [2]
5.33: SNTG1, Q9NSN8; [2]
3.73: LNX1_2, Q8TBB1; [2]

GRLLGLETNV [ARHGEF26, Q96DR7]
5.35: MAST2, Q6P0Q8; [2]
3.81: LNX1_1, Q8TBB1; [2]
4.49: SNX27, Q96L92; [2]
3.9: MAGI2_3, Q86UL8; [2]
4.48: RHPN1, Q8TCX5; [2]
4.68: MAGI3_2, Q5TCQ9; [2]
below the threshold: AHNAK1, Q09666; [2] | APBA1_1, Q02410; [2] | GRID2IP_1, A4D2P6; [2] | GRID2IP_2, A4D2P6; [2] | GRIP1_5, Q9Y3R0; [2] | GRIP2_5, Q9C0E4; [2] | HTRA3, P83110; [2] | HTRA4, P83105; [2] | IL16_4, Q14005; [2] | Inadl_10, Q8NI35; [2] | LDB3, O75112; [2] | LNX1_2, Q8TBB1; [2] | LNX1_3, Q8TBB1; [2] | MPP6, Q9NZW5; [2] | NHERF3_1, Q5T2W1; [2] | NHERF3_3, Q5T2W1; [2] | NHERF3_4, Q5T2W1; [2] | NHERF4_4, Q86UT5; [2] | SHANK1, Q9Y566; [2]
4.95: SNTG1, Q9NSN8; [2]
3.8: DLG4_3, P78352; [2]

QRPYRRESEI [KCNJ12, Q14500]
4.75: MAGI3_2, Q5TCQ9; [2]
3.82: SNTG1, Q9NSN8; [2]
below the threshold: AHNAK1, Q09666; [2] | APBA1_1, Q02410; [2] | GRID2IP_1, A4D2P6; [2] | GRID2IP_2, A4D2P6; [2] | GRIP1_5, Q9Y3R0; [2] | GRIP2_5, Q9C0E4; [2] | HTRA3, P83110; [2] | HTRA4, P83105; [2] | IL16_4, Q14005; [2] | Inadl_10, Q8NI35; [2] | LDB3, O75112; [2] | LNX1_1, Q8TBB1; [2] | LNX1_2, Q8TBB1; [2] | LNX1_3, Q8TBB1; [2] | MAGI2_3, Q86UL8; [2] | MPP6, Q9NZW5; [2] | NHERF3_1, Q5T2W1; [2] | NHERF3_3, Q5T2W1; [2] | NHERF3_4, Q5T2W1; [2] | NHERF4_4, Q86UT5; [2] | SHANK1, Q9Y566; [2] | SNX27, Q96L92; [2]
4.42: MAST2, Q6P0Q8; [2]
4.31: DLG4_3, P78352; [2]
3.5: RHPN1, Q8TCX5; [2]
